In US20260085105A1 (Amgen, published 2026):

What was measured:
[1] = target: T1, AK2 peptide on HLA-A*02:01 (human); test: killing
T1 peptide: FLLDGFPRTV

[2] = target: T2, COX14 peptide on HLA-A*02:01 (human); test: killing
T2 peptide: TVYGGYLCSV

[3] = target: T3, DDAH peptide on HLA-A*02:01 (human); test: killing
T3 peptide: VLFTGREFFV

[4] = target: T4, ACTB peptide on HLA-A*02:01 (human); test: killing
T4 peptide: DSGDGVTHTV

[5] = target: T5, OSBPL10 peptide on HLA-A*02:01 (human); test: killing
T5 peptide: SQYSGQLHEV

[6] = target: T6, PGRMC1 peptide on HLA-A*02:01 (human); test: killing
T6 peptide: LLKEGEEPTV

[7] = target: T7, VPS13B peptide on HLA-A*02:01 (human); test: killing
T7 peptide: GLMDGSPHFL

[8] = target: T8, ATOH8 peptide on HLA-A*02:01 (human); test: killing
T8 peptide: VLEDGPWKTV

[9] = target: T9, FAS peptide on HLA-A*02:01 (human); test: killing
T9 peptide: ALLDGRLQVV

[10] = target: T10, PLD4 peptide on HLA-A*02:01 (human); test: killing
T10 peptide: GLFDGVPTTA

[11] = target: T11, IMPDH1 peptide on HLA-A*02:01 (human); test: killing
T11 peptide: IIADGGIQTV

[12] = target: T12, XIAP peptide on HLA-A*02:01 (human); test: killing
T12 peptide: FLYTGEGTV

[13] = target: T13, UTRN peptide on HLA-A*02:01 (human); test: killing
T13 peptide: NQWDGTQHGV

[14] = target: T14, DPYSL4 peptide on HLA-A*02:01 (human); test: killing
T14 peptide: GLYDGPVHEV

[15] = target: T15, DPYSL2 peptide on HLA-A*02:01 (human); test: killing
T15 peptide: GLYDGPVCEV

[16] = target: T16, MYOF peptide on HLA-A*02:01 (human); test: killing
T16 peptide: FFVYDEPGHAV

[17] = target: T17, CDNP2 peptide on HLA-A*02:01 (human); test: killing
T17 peptide: GVYGGSVHEA

[18] = target: T18, KEAP1 peptide on HLA-A*02:01 (human); test: killing
T18 peptide: GVIDGHIYAV

[19] = target: T19, DYNC1H1 peptide on HLA-A*02:01 (human); test: killing
T19 peptide: FLSDPQVHTV

[20] = target: T20, STXBP5 peptide on HLA-A*02:01 (human); test: killing
T20 peptide: YTYDEAIHSV

[21] = target: T21, MAGE-A4 peptide on HLA-A*02:01 (human); test: multimer staining
T21 peptide: GVYDGREHTV

… (MAGEA8)/HLA-A*02:01 = … (MAGEA8)/HLA-A*02:01 (human); test: cell-based or functional assay
[22] = target: T22, HERC4 peptide on HLA-A*02:01 (human); test: killing
T22 peptide: KVLEILHRV

[23] = target: T23, PSME2 peptide on HLA-A*02:01 (human); test: killing
T23 peptide: KVLERVNAV

[24] = target: T24, TP2 peptide on HLA-A*02:01 (human); test: killing
T24 peptide: KILEDVVGV

[25] = target: T25, HTR5A peptide on HLA-A*02:01 (human); test: killing
T25 peptide: KVLETLVTV

[26] = target: T26, RG1L peptide on HLA-A*02:01 (human); test: killing
T26 peptide: FLLETVVRV

[27] = target: T27, CNOT1 peptide on HLA-A*02:01 (human); test: killing
T27 peptide: KVLGIVVGV

[28] = target: T28, ATAD2 peptide on HLA-A*02:01 (human); test: killing
T28 peptide: KILEALQRV

[29] = target: T29, GPC5 peptide on HLA-A*02:01 (human); test: killing
T29 peptide: KLLEQVNRI

[30] = target: T30, MIA3 peptide on HLA-A*02:01 (human); test: killing
T30 peptide: KVLDKVFRA

[31] = target: T31, SYNE3 peptide on HLA-A*02:01 (human); test: killing
T31 peptide: KLLDLQVRV

[32] = target: T32, ANO5 peptide on HLA-A*02:01 (human); test: killing
T32 peptide: IVMEHVVFL

[33] = target: T33, AXIN1 peptide on HLA-A*02:01 (human); test: killing
T33 peptide: ILDEHVQRV

[34] = target: T34, GRP78 peptide on HLA-A*02:01 (human); test: killing
T34 peptide: KVTHAVVTV

[35] = target: T35, PTRF peptide on HLA-A*02:01 (human); test: killing
T35 peptide: KLLEKVRKV

[36] = target: T36, TRMT1L peptide on HLA-A*02:01 (human); test: killing
T36 peptide: VALEHFVLV

[37] = target: T37, KIAA1033 peptide on HLA-A*02:01 (human); test: killing
T37 peptide: KVLNKVITV

[38] = target: T38, NSD1 peptide on HLA-A*02:01 (human); test: killing
T38 peptide: KVQEQVHKV

[39] = target: T39, HNRNPR peptide on HLA-A*02:01 (human); test: killing
T39 peptide: KVWGNVVTV

[40] = target: T40, TSC1 peptide on HLA-A*02:01 (human); test: killing
T40 peptide: SLLGHVIRL

[41] = target: T41, MADD peptide on HLA-A*02:01 (human); test: killing
T41 peptide: ILLEHKVVL

[42] = target: T42, MAGE-A4 (100% identical in MAGEA8) peptide on HLA-A*02:05 (human); test: killing
T42 peptide: KVLEHVVRV

[43] = target: T43, MAGE-A4 (100% identical in MAGEA8) peptide on HLA-A*02:07 (human); test: killing
T43 peptide: KVLEHVVRV

[44] = target: T44, MAGE-A4 (100% identical in MAGEA8) peptide on HLA-A*02:01 (human); test: cells that express the antigen: NCI-H1755; TCR-Ts of three donors; full-length, on cells
T44 peptide: KVLEHVVRV

B1: TCR8 of Tables 1A and 1B (printed TCR18) (TCR, V domains shown)
Valpha: KQEVTQIPAALSVPEGENLVLNCSFTDSAIYNLQWFRQDPGKGLTSLLLIQSSQREQTSGRLNASLDKSSGRSTLYIAASQPGDSATYLCAVDAHARLMFGDGTQLVVKP
Vbeta: EPEVTQTPSHQVTQMGQEVILRCVPISNHLYFYWYRQILGQKVEFLVSFYNNEISEKSEIFDDQFSVERPDGSNFTLKIRSTKLEDSAMYFCASISGEQYFGPGTRLTVT
no recognition: binding result [1] | binding result [2] | binding result [3] | binding result [4] | binding result [5] | binding result [6] | binding result [7] | binding result [8] | binding result [9] | binding result [10] | binding result [11] | binding result [12] | binding result [13] | binding result [14] | binding result [15] | binding result [16] | binding result [17] | binding result [18] | binding result [19] | binding result [20]
recognises: binding result [21]

B2: TCR18 (running number 7 of Table 1A) (TCR, V domains shown)
V domain 1: AQTVTQSQPEMSVQEAETVTLSCTYDTSENNYYLFWYKQPPSRQMILVIRQEAYKQQNATENRFSVNFQKAAKSFSLKISDSQLGDTAMYFCALLDSGNTPLVFGKGTRLSVIA
V domain 2: NAGVTQTPKFRILKIGQSMTLQCAQDMNHNYMYWYRQDPGMGLKLIYYSVGAGITDKGEVPNGYNVSRSTTEDFPLRLELAAPSQTSVYFCASSYTNNEQFFGPGTRLTVLE
> 1000 fold: fold difference in EC50 between the MAGEA4 and MAGEA8 peptides, TDCC on peptide-loaded T2 cells (… (MAGEA8)/HLA-A*02:01)

B3: TCR7 of Tables 1A and 1B (TCR18) (TCR, V domains shown)
Valpha: AQTVTQSQPEMSVQEAETVTLSCTYDTSENNYYLFWYKQPPSRQMILVIRQEAYKQQNATENRFSVNFQKAAKSFSLKISDSQLGDTAMYFCALLDSGNTPLVFGKGTRLSVIA
Vbeta: NAGVTQTPKFRILKIGQSMTLQCAQDMNHNYMYWYRQDPGMGLKLIYYSVGAGITDKGEVPNGYNVSRSTTEDFPLRLELAAPSQTSVYFCASSYTNNEQFFGPGTRLTVL
recognises: binding result [21]
no recognition: binding result [1] | binding result [2] | binding result [3] | binding result [4] | binding result [5] | binding result [6] | binding result [7] | binding result [8] | binding result [9] | binding result [10] | binding result [11] | binding result [12] | binding result [13] | binding result [14] | binding result [15] | binding result [16] | binding result [17] | binding result [18] | binding result [19] | binding result [20]

B4: TCR3 of Tables 1A and 1B (TCR2 of the examples) (TCR, V domains shown)
Valpha: GESVGLHLPTLSVQEGDNSIINCAYSNSASDYFIWYKQESGKGPQFIIDIRSNMDKRQGQRVTVLLNKTVKHLSLQIAATQPGDSAVYFCAEASPRQDTGRRALTFGSGTRLQVQP
Vbeta: DAGVTQSPTHLIKTRGQQVTLRCSPKSGHDTVSWYQQALGQGPQFIFQYYEEEERQRGNFPDRFSGHQFPNYSSELNVNALLLGDSALYLCASSLWTGSGELFFGEGSRLTVL
no recognition: binding result [22] | binding result [23] | binding result [24] | binding result [25] | binding result [26] | binding result [27] | binding result [28] | binding result [29] | binding result [30] | binding result [31] | binding result [32] | binding result [33] | binding result [34] | binding result [35] | binding result [36] | binding result [37] | binding result [38] | binding result [39] | binding result [40] | binding result [41]
0.01 effector:target ratio: E:T EC50 [44]
recognises: binding result [42] | binding result [43]
